Results reported in PMC11188170, “A comprehensive analysis of the WRKY family in soybean and functional analysis of GmWRKY164-GmGSL7c in resistance to soybean mosaic virus”.

Target: GmWRKY164 (Glycine max, UniProt K7MND9 1-149)
Assay: EMSA; 6 ug protein; 200-fold unlabelled probe used as competitor; LightShift Chemiluminescent EMSA kit binding reaction, 20 min, 6% native PAGE; buffer, salt, pH and temperature not stated
Conditions: protein: recombinant; tags: His; label: 5' biotin; blunt

Chain of GmWRKY164 (K7MND9 entry or part of it): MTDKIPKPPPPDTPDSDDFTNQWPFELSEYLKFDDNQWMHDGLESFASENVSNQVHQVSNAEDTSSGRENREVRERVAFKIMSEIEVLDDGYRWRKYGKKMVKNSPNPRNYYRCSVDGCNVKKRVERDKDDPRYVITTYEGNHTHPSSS

B1: GmGSL7c promoter W-box probe (dsDNA)
DNA 1: TAGCCCAACTCATCAGAAGAAGGTCAATGTAATAGTA
DNA 2: TACTATTACATTGACCTTCTTCTGATGAGTTGGGCTA
- binding result: binds
